The supplement of paper PMC10724198
± gives the standard deviation of the averaged measurements.

Each sequence was assayed on Saccharomyces cerevisiae (assay: protein stability index of tFT-peptide fusion (C-terminal peptide) (PSI (0-1 scale)); higher = more stable (slower turnover)). Details: genetic background: wild type; temperature: 30 C.
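Further: PSI is a weighted mean of sequencing reads over stability bins, variants kept only with over 10 reads, mCherry proximal and sfGFP distal, peptide attached via GGGS linker.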

In order of falling protein stability index:
1. LPPPPTFPPPRS  0.8307 ± 0.0063
2. LPPLPPIAPPPP  0.8126 ± 0.0041
3. LPPFPPPSAPPS  0.792 ± 0.023
4. LPSPSGSPVPFL  0.771 ± 0.041
5. LPPPLPPCPSGP  0.77 ± 0.048
6. LLVREVGVERTF  0.7636 ± 0.0024
7. LPPLPPPSPFPS  0.762 ± 0.074
8. LPPCPLFPPVHF  0.757 ± 0.1
9. LPPSPILFPASP  0.754 ± 0.072
10. LPPSPPLPCPLL  0.75 ± 0.048
11. LLSSPPSPGFSL  0.748 ± 0.12
12. LPPPPLPPHPPL  0.748 ± 0.067
13. LPLPPLPPGMLS  0.747 ± 0.073
14. LPPPSAPFPLPP  0.743 ± 0.026
15. LPRPAPPIRPRT  0.74 ± 0.013
16. LLSVVLPDSSLP  0.738 ± 0.065
17. LLRSSPPLPPPS  0.737 ± 0.029
18. LPPPSPPSSAPP  0.734 ± 0.049
19. LPPLLDSPPCSP  0.733 ± 0.04
20. LLPPTPIAFPPS  0.728 ± 0.073
21. LQDLPRLHALPN  0.727 ± 0.086
22. LPPPAPRSHCPL  0.725 ± 0.098
23. LPQPQPPVPPPL  0.7209 ± 0.0042
24. LPPFLLPPFFSI  0.718 ± 0.055
25. LLLSRLSPPPPS  0.716 ± 0.021
26. LLPPPSTPPRLI  0.716 ± 0.052
27. LPLSLPTPPALD  0.716 ± 0.075
28. LPPPSPLPNSPL  0.716 ± 0.13
29. LPVSGLRAAGAM  0.7154 ± 0.0034
30. LPLLPLPSLSPP  0.713 ± 0.035
31. LMYPGTSPLSPH  0.711 ± 0.092
32. LPRPPPRYLPPL  0.711 ± 0.059
33. LPSPTTNLFKPN  0.711 ± 0.0091
34. LPSSCVLHMFFP  0.7111 ± 0.0024
35. LPLQPSSNLTCL  0.70856 ± 0.00024
36. LLPHALHVPFHL  0.707 ± 0.1
37. LLTGCVPVLIRK  0.707 ± 0.093
38. LPPCPPGGRRSR  0.706 ± 0.036
39. LPPPPPPPPLPH  0.705 ± 0.1
40. LPAFAPLCLPTL  0.703 ± 0.02
41. LPGFPGPSCICH  0.703 ± 0.21
42. LPPPPLPQAPPT  0.702 ± 0.075
43. LPRPLSPPLPSP  0.702 ± 0.042
44. LPPSPRLSFSPP  0.701 ± 0.034
45. LLPCLSSLPPLP  0.7 ± 0.064
46. LPHPRPPQSPPQ  0.7 ± 0.03
47. LPPPPPPPASPD  0.699 ± 0.058
48. LLRALPSYRPFP  0.696 ± 0.016
49. LLPLRPRSLGPP  0.693 ± 0.0011
50. LPLLLPFRTPDF  0.693 ± 0.015
51. LLPISFVSPPPG  0.6915 ± 0.0026
52. LPLPPPSPFPPL  0.691 ± 0.015
53. LPPPSPPTPPFP  0.691 ± 0.018
54. LNSSRLSFFCLE  0.689 ± 0.079
55. LQALQTKPSQAL  0.688 ± 0.083
56. LLPLPPPPPPPP  0.685 ± 0.063
57. LPLLRWASPRGF  0.685 ± 0.0042
58. LPPLPPSPPPLP  0.685 ± 0.024
59. LPSLSSFALHMP  0.685 ± 0.018
60. LPPPPFPPPKPF  0.683 ± 0.0084
61. LPPPSPTPPPPP  0.683 ± 0.019
62. LPASWSRVSFAG  0.6825 ± 0.0034
63. LLRLPCHLSQAS  0.68 ± 0.035
64. LPSAPLLPLLRP  0.68 ± 0.041
65. LLLSALSRRPSF  0.678 ± 0.023
66. LNWISKQVTEKH  0.676 ± 0.013
67. LPPPPTCYDHPL  0.676 ± 0.052
68. LPSPSSTLSPLR  0.674 ± 0.059
69. LPTLPGWKASCL  0.674 ± 0.032
70. LPTPFKSSPSAA  0.674 ± 0.024
71. LPPPPPCPPSPL  0.671 ± 0.024
72. LPSPPVSIPYPS  0.671 ± 0.029
73. LMFGDPIEANKE  0.67 ± 0.01
74. LPPTPSSRGPHS  0.669 ± 0.019
75. LLSSIPSLMFYY  0.667 ± 0.046
76. LPPRPPRPPPSP  0.666 ± 0.019
77. LPPLPRPLLLPR  0.661 ± 0.044
78. LPRPPPPPALPT  0.66 ± 0.087
79. LLSNTINRIWRN  0.658 ± 0.018
80. LPPSLPPRLPPP  0.658 ± 0.04
81. LLTSFFTLFCNT  0.657 ± 0.05
82. LNLSIRDVTSSG  0.657 ± 0.013
83. LNHSLLHILSRV  0.656 ± 0.022
84. LPPSRSLLPPRP  0.6531 ± 0.0059
85. LPSASPPSPPPP  0.652 ± 0.037
86. LLPPALPESPPP  0.649 ± 0.0072
87. LPRRLLFSYPTF  0.647 ± 0.02
88. LLSSLLLDQPYR  0.6455 ± 0.0036
89. LPCPSFPSLPFL  0.646 ± 0.1
90. LPPHRSSTPPPA  0.644 ± 0.02
91. LNEVSLLSPAPL  0.64 ± 0.057
92. LLTCRPPQCLLC  0.6303 ± 0.0038
93. LLTLPPPRLLSL  0.629 ± 0.022
94. LLPHLLVLLPSS  0.623 ± 0.0049
95. LNPLAILCSSVF  0.617 ± 0.037
96. LMGASAAFIKKG  0.601 ± 0.067
97. LLMHPCTVELIS  0.594 ± 0.042
98. LLLVLGLSLVGL  0.564 ± 0.035
99. LPPATMFFISAS  0.558 ± 0.019
100. LLVSVHFSPPLY  0.5515 ± 0.0023
101. LPVGYVCGLWVG  0.543 ± 0.038
